B1: EUGO (eugenol oxidase from Rhodococcus jostii RHA1) (Rhodococcus jostii RHA1) (protein)
chain: MTRTLPPGVSDERFDAALQRFRDVVGDKWVLSTADELEAFRDPYPVGAAEANLPSAVVSPESTEQVQDIVRIANEYGIPLSPVSTGKNNGYGGAAPRLSGSVIVKTGERMNRILEVNEKYGYALLEPGVTYFDLYEYLQSHDSGLMLDCPDLGWGSVVGNTLDRGVGYTPYGDHFMWQTGLEVVLPQGEVMRTGMGALPGSDAWQLFPYGFGPFPDGMFTQSNLGIVTKMGIALMQRPPASQSFLITFDKEEDLEQIVDIMLPLRINMAPLQNVPVLRNIFMDAAAVSKRTEWFDGDGPMPAEAIERMKKDLDLGFWNFYGTLYGPPPLIEMYYGMIKEAFGKIPGARFFTHEERDDRGGHVLQDRHKINNGIPSLDELQLLDWVPNGGHIGFSPVSAPDGREAMKQFEMVRNRANEYNKDYAAQFIIGLREMHHVCLFIYDTAIPEAREEILQMTKVLVREAAEAGYGEYRTHNALMDDVMATFNWGDGALLKFHEKIKDALDPNGIIAPGKSGIWSQRFRGQNL
notes: covalent FAD on H390
B2: VAD (vanillyl-alcohol dehydrogenase from Marinicaulis flavus) (Hyphococcus luteus; P151I) (protein)
chain: MAAPLPEGVSAEAMSSALDRFARIVGADWVFTEDKITPYEDPYTISNDETEHRPYAAVAPASTEEVQEIVRVANEFGVPLWPVSRGKNFAYGGAAPVMSGTVVLDMNRMNRILEVNEEFGYALVEPGVSYFELYDYIQEKGLKLWIDVPDIGWGSVVGNALDHGIGYTPYGDHFAMQCGMEVVLPNGEVVRTGMGAMPGNNTWQLFKYGYGPYVDGIFSQSNFGVVTKMGIWLMPEPAGYRPYLITFENEDDIETVTERLRPLKVAGVIQNGATVRSLVLDAAITRTKSQYYDGDGPIPPSVAKTMMADLDLGMWNFCGALYGPPPVMDTLWTAIRDSFADIPGVKFYFPEDRRHKVDLLLHRAETMKGVPKLTEFNFLNWDGGGGHVGFSPVSPITGKDAIKQYNMVSSRVREYGFDYMGLLAIGWRDLHHVTVIVYDKTDPDERKKLDELFNILVDEAAAEGYGEYRTHIRYMDRIAKTYSWNDNALWKMHETIKDALDPNGILAPGKSGIWGKNRRKA
notes: SUMO tag cleaved for crystals; covalent FAD on H387; dimer
B3: VAD (vanillyl-alcohol dehydrogenase from Marinicaulis flavus) (Hyphococcus luteus; P151V) (protein)
chain: MAAPLPEGVSAEAMSSALDRFARIVGADWVFTEDKITPYEDPYTISNDETEHRPYAAVAPASTEEVQEIVRVANEFGVPLWPVSRGKNFAYGGAAPVMSGTVVLDMNRMNRILEVNEEFGYALVEPGVSYFELYDYIQEKGLKLWIDVPDVGWGSVVGNALDHGIGYTPYGDHFAMQCGMEVVLPNGEVVRTGMGAMPGNNTWQLFKYGYGPYVDGIFSQSNFGVVTKMGIWLMPEPAGYRPYLITFENEDDIETVTERLRPLKVAGVIQNGATVRSLVLDAAITRTKSQYYDGDGPIPPSVAKTMMADLDLGMWNFCGALYGPPPVMDTLWTAIRDSFADIPGVKFYFPEDRRHKVDLLLHRAETMKGVPKLTEFNFLNWDGGGGHVGFSPVSPITGKDAIKQYNMVSSRVREYGFDYMGLLAIGWRDLHHVTVIVYDKTDPDERKKLDELFNILVDEAAAEGYGEYRTHIRYMDRIAKTYSWNDNALWKMHETIKDALDPNGILAPGKSGIWGKNRRKA
notes: as for B2
B4: VAD (vanillyl-alcohol dehydrogenase from Marinicaulis flavus) (Hyphococcus luteus; P151L) (protein)
chain: MAAPLPEGVSAEAMSSALDRFARIVGADWVFTEDKITPYEDPYTISNDETEHRPYAAVAPASTEEVQEIVRVANEFGVPLWPVSRGKNFAYGGAAPVMSGTVVLDMNRMNRILEVNEEFGYALVEPGVSYFELYDYIQEKGLKLWIDVPDLGWGSVVGNALDHGIGYTPYGDHFAMQCGMEVVLPNGEVVRTGMGAMPGNNTWQLFKYGYGPYVDGIFSQSNFGVVTKMGIWLMPEPAGYRPYLITFENEDDIETVTERLRPLKVAGVIQNGATVRSLVLDAAITRTKSQYYDGDGPIPPSVAKTMMADLDLGMWNFCGALYGPPPVMDTLWTAIRDSFADIPGVKFYFPEDRRHKVDLLLHRAETMKGVPKLTEFNFLNWDGGGGHVGFSPVSPITGKDAIKQYNMVSSRVREYGFDYMGLLAIGWRDLHHVTVIVYDKTDPDERKKLDELFNILVDEAAAEGYGEYRTHIRYMDRIAKTYSWNDNALWKMHETIKDALDPNGILAPGKSGIWGKNRRKA
notes: as for B2
B5: VAD (vanillyl-alcohol dehydrogenase from Marinicaulis flavus) (Hyphococcus luteus; P151G) (protein)
chain: MAAPLPEGVSAEAMSSALDRFARIVGADWVFTEDKITPYEDPYTISNDETEHRPYAAVAPASTEEVQEIVRVANEFGVPLWPVSRGKNFAYGGAAPVMSGTVVLDMNRMNRILEVNEEFGYALVEPGVSYFELYDYIQEKGLKLWIDVPDGGWGSVVGNALDHGIGYTPYGDHFAMQCGMEVVLPNGEVVRTGMGAMPGNNTWQLFKYGYGPYVDGIFSQSNFGVVTKMGIWLMPEPAGYRPYLITFENEDDIETVTERLRPLKVAGVIQNGATVRSLVLDAAITRTKSQYYDGDGPIPPSVAKTMMADLDLGMWNFCGALYGPPPVMDTLWTAIRDSFADIPGVKFYFPEDRRHKVDLLLHRAETMKGVPKLTEFNFLNWDGGGGHVGFSPVSPITGKDAIKQYNMVSSRVREYGFDYMGLLAIGWRDLHHVTVIVYDKTDPDERKKLDELFNILVDEAAAEGYGEYRTHIRYMDRIAKTYSWNDNALWKMHETIKDALDPNGILAPGKSGIWGKNRRKA
notes: as for B2
B6: VAD (vanillyl-alcohol dehydrogenase from Marinicaulis flavus) (Hyphococcus luteus) (protein)
chain: MAAPLPEGVSAEAMSSALDRFARIVGADWVFTEDKITPYEDPYTISNDETEHRPYAAVAPASTEEVQEIVRVANEFGVPLWPVSRGKNFAYGGAAPVMSGTVVLDMNRMNRILEVNEEFGYALVEPGVSYFELYDYIQEKGLKLWIDVPDPGWGSVVGNALDHGIGYTPYGDHFAMQCGMEVVLPNGEVVRTGMGAMPGNNTWQLFKYGYGPYVDGIFSQSNFGVVTKMGIWLMPEPAGYRPYLITFENEDDIETVTERLRPLKVAGVIQNGATVRSLVLDAAITRTKSQYYDGDGPIPPSVAKTMMADLDLGMWNFCGALYGPPPVMDTLWTAIRDSFADIPGVKFYFPEDRRHKVDLLLHRAETMKGVPKLTEFNFLNWDGGGGHVGFSPVSPITGKDAIKQYNMVSSRVREYGFDYMGLLAIGWRDLHHVTVIVYDKTDPDERKKLDELFNILVDEAAAEGYGEYRTHIRYMDRIAKTYSWNDNALWKMHETIKDALDPNGILAPGKSGIWGKNRRKA
notes: as for B2
B7: VAD (vanillyl-alcohol dehydrogenase from Marinicaulis flavus) (Hyphococcus luteus; P151T) (protein)
chain: MAAPLPEGVSAEAMSSALDRFARIVGADWVFTEDKITPYEDPYTISNDETEHRPYAAVAPASTEEVQEIVRVANEFGVPLWPVSRGKNFAYGGAAPVMSGTVVLDMNRMNRILEVNEEFGYALVEPGVSYFELYDYIQEKGLKLWIDVPDTGWGSVVGNALDHGIGYTPYGDHFAMQCGMEVVLPNGEVVRTGMGAMPGNNTWQLFKYGYGPYVDGIFSQSNFGVVTKMGIWLMPEPAGYRPYLITFENEDDIETVTERLRPLKVAGVIQNGATVRSLVLDAAITRTKSQYYDGDGPIPPSVAKTMMADLDLGMWNFCGALYGPPPVMDTLWTAIRDSFADIPGVKFYFPEDRRHKVDLLLHRAETMKGVPKLTEFNFLNWDGGGGHVGFSPVSPITGKDAIKQYNMVSSRVREYGFDYMGLLAIGWRDLHHVTVIVYDKTDPDERKKLDELFNILVDEAAAEGYGEYRTHIRYMDRIAKTYSWNDNALWKMHETIKDALDPNGILAPGKSGIWGKNRRKA
notes: as for B2
B8: VAD (vanillyl-alcohol dehydrogenase from Marinicaulis flavus) (Hyphococcus luteus; P151N) (protein)
chain: MAAPLPEGVSAEAMSSALDRFARIVGADWVFTEDKITPYEDPYTISNDETEHRPYAAVAPASTEEVQEIVRVANEFGVPLWPVSRGKNFAYGGAAPVMSGTVVLDMNRMNRILEVNEEFGYALVEPGVSYFELYDYIQEKGLKLWIDVPDNGWGSVVGNALDHGIGYTPYGDHFAMQCGMEVVLPNGEVVRTGMGAMPGNNTWQLFKYGYGPYVDGIFSQSNFGVVTKMGIWLMPEPAGYRPYLITFENEDDIETVTERLRPLKVAGVIQNGATVRSLVLDAAITRTKSQYYDGDGPIPPSVAKTMMADLDLGMWNFCGALYGPPPVMDTLWTAIRDSFADIPGVKFYFPEDRRHKVDLLLHRAETMKGVPKLTEFNFLNWDGGGGHVGFSPVSPITGKDAIKQYNMVSSRVREYGFDYMGLLAIGWRDLHHVTVIVYDKTDPDERKKLDELFNILVDEAAAEGYGEYRTHIRYMDRIAKTYSWNDNALWKMHETIKDALDPNGILAPGKSGIWGKNRRKA
notes: as for B2

Key:
Assay in all cases: purified protein
purified protein [1] = substrate: COc1cc(CO)ccc1O; type: biochemical, Rhodococcus jostii; details: molecular oxygen as acceptor, 25 °C, 50 mM potassium phosphate pH 7.5, 150 mM NaCl
purified protein [2] = substrate: COc1cc(CO)ccc1O; type: biochemical, Hyphococcus luteus; details: 100 μM DCPIP as acceptor, 25 °C, 50 mM potassium phosphate pH 7.5, 150 mM NaCl
purified protein [3] = substrate: C=CCc1ccc(O)c(OC)c1; type: biochemical, Hyphococcus luteus; details: 100 μM DCPIP as acceptor, 25 °C, 50 mM potassium phosphate pH 7.5, 150 mM NaCl
purified protein [4] = substrate: COCc1ccc(O)cc1; type: biochemical, Hyphococcus luteus; details: 100 μM DCPIP as acceptor, 25 °C, 50 mM potassium phosphate pH 7.5, 150 mM NaCl
purified protein [5] = substrate: OCc1ccc(O)cc1; type: biochemical, Hyphococcus luteus; details: 100 μM DCPIP as acceptor, 25 °C, 50 mM potassium phosphate pH 7.5, 150 mM NaCl

| Protein | Km (purified protein [2]) [µM] | kcat (purified protein [2]) [s⁻¹] | kcat/Km (purified protein [2]) [M⁻¹ s⁻¹] | also measured |
| --- | --- | --- | --- | --- |
| B1 |  |  |  | Km (purified protein [1]): 204.4 ± 28.9 µM; kcat (purified protein [1]): 9.68 ± 0.43 s⁻¹; kcat/Km (purified protein [1]): 47400 M⁻¹ s⁻¹ |
| B2 | 37.5 ± 9.2 | 0.73 ± 0.04 | 19000 |  |
| B3 | 42.2 ± 6.6 | 0.90 ± 0.04 | 21000 |  |
| B4 | 72.4 ± 6.3 | 0.76 ± 0.02 | 10500 |  |
| B5 | 316.5 ± 39.7 | 1.49 ± 0.07 | 5000 |  |
| B6 | 74.2 ± 12.4 | 0.44 ± 0.02 | 6000 | Km (purified protein [3]): 51.2 ± 13.1 µM; kcat (purified protein [3]): 0.81 ± 0.06 s⁻¹; kcat/Km (purified protein [3]): 16000 M⁻¹ s⁻¹; Km (purified protein [4]): 330 ± 40 µM; kcat (purified protein [4]): 0.06 ± 0.003 s⁻¹; kcat/Km (purified protein [4]): 200 M⁻¹ s⁻¹; Km (purified protein [5]): 208 ± 9 µM; kcat (purified protein [5]): 0.25 ± 0.01 s⁻¹; kcat/Km (purified protein [5]): 1200 M⁻¹ s⁻¹ |
| B7 | 17.6 ± 5.5 | 0.48 ± 0.03 | 27000 |  |
| B8 | 151 ± 24 | 0.14 ± 0.07 | 1000 |  |
